What all share (experiment): NADPH consumption at A340, Lineweaver-Burk
Holding throughout (type): biochemical, Oryza sativa
Holding throughout (conditions): 300 μM NADPH, 100 mM sodium/potassium phosphate pH 6.25, 30 °C, substrate 5–50 μM

Substrate in series [1]: COc1cc(/C=C/C=O)ccc1O
The source says: (§1) NADPH consumption at A340, Lineweaver-Burk on OsCAD2

Substrate in series [2]: O=CC=Cc1ccccc1
Description: as §1

Substrate in series [3]: O=C/C=C/c1ccc(O)cc1
Description: as §1

Substrate in series [4]: COc1cc(/C=C/C=O)cc(OC)c1O
Description: as §1

Substrate in series [5]: COc1cc(/C=C/C=O)ccc1O
The source says: (§2) NADPH consumption at A340, Lineweaver-Burk on OsCAD6
This is another data set of the same source.

Substrate in series [6]: O=CC=Cc1ccccc1
Description: as §2
This is another data set of the same source.

Substrate in series [7]: O=C/C=C/c1ccc(O)cc1
Description: as §2
This is another data set of the same source.

Substrate in series [8]: COc1cc(/C=C/C=O)cc(OC)c1O
Description: as §2
This is another data set of the same source.

Substrate in series [9]: COc1cc(/C=C/C=O)ccc1O
The source says: (§3) NADPH consumption at A340, Lineweaver-Burk on OsCAD7
The source holds these as a separate data set.

Substrate in series [10]: O=CC=Cc1ccccc1
Description: as §3
The source holds these as a separate data set.

Substrate in series [11]: O=C/C=C/c1ccc(O)cc1
Description: as §3
This is another data set of the same source.

Substrate in series [12]: COc1cc(/C=C/C=O)cc(OC)c1O
Description: as §3
This is another data set of the same source.

B1: OsCAD2 (Oryza sativa Japonica Group) (protein)
chain: MGSLAAEKTVTGWAARDASGHLTPYNYTLRKTGPEDVVVKVLYCGICHTDIHQAKNHLGASKYPMVPGHEVVGEVVEVGPEVTKYSAGDVVGVGVIVGCCRECHPCKANVEQYCNKRIWSYNDVYTDGRPTQGGFASAMVVDQKFVVKIPAGLAPEQAAPLLCAGLTVYSPLKHFGLMSPGLRGGVLGLGGVGHMGVKVAKSMGHHVTVISSSARKRGEAMDDLGADAYLVSSDAAAMAAAGDSLDYIIDTVPVHHPLEPYLALLKLDGKLILMGVINQPLSFISPMVMLGRKAITGSFIGSMAETEEVLNFCVDKGLTSQIEVVKMDYVNQALERLERNDVRYRFVVDVAGSNIDDADAPPA
For the protein B1, the Km (commonly the concentration of substrate that gives half-maximal velocity) in series [1] turned out to be 4.37 ± 0.85 µM; in [2], 5.30 ± 3.42 µM; in [3] it was 9.36 ± 2.50 µM; in series [4], 8.19 ± 2.62 µM. Besides, the Vmax (commonly the rate approached at saturating substrate) amounted to 38.7 µmol/min/mg in series [1], 11.6 µmol/min/mg in series [2], 17.8 µmol/min/mg in [3] and 52.9 µmol/min/mg in series [4]. In addition, the kcat (in general, the number of substrate molecules converted per active site and unit of time at saturation) in [1] came out at 30.1 s⁻¹; in [2], 9.05 s⁻¹; in [3], 13.9 s⁻¹; in series [4], 41.2 s⁻¹. The kcat/Km (commonly the second-order rate constant that governs catalysis at low substrate concentration) in [1] was 7.15e+06 M⁻¹ s⁻¹; in series [2], 2.37e+06 M⁻¹ s⁻¹; in series [3] it was 1.54e+06 M⁻¹ s⁻¹; in [4], 5.35e+06 M⁻¹ s⁻¹.

B2: OsCAD6 (Oryza sativa Japonica Group) (protein)
chain: MEVTPNHTQTVSGWAAMDESGKIVPFVFKRRENGVDDVTIKVKYCGMCHTDLHFIHNDWGITMYPVVPGHEITGVVTKVGTNVAGFKVGDRVGVGCIAASCLDCEHCRRSEENYCDKVALTYNGIFWDGSITYGGYSGMLVAHKRFVVRIPDTLPLDAAAPLLCAGITVYSPMKQHGMLQADAAGRRLGVVGLGGLGHVAVKFGKAFGLHVTVISTSPAKEREARENLKADNFVVSTDQKQMQAMTRSLDYIIDTVAATHSLGPILELLKVNGKLVLVGAPEKPVELPSFPLIFGKRTVSGSMTGGMKETQEMMDICGEHNITCDIEIVSTDRINDALARLARNDVRYRFVINVGGDSKL
For the protein B2, the Km in series [5] is 16.18 ± 4.49 µM; in series [6], 28.25 ± 11.36 µM; in [7], 10.88 ± 4.29 µM; in series [8], 10.72 ± 0.47 µM. For the same protein, the Vmax is 0.217 µmol/min/mg in [5], 0.439 µmol/min/mg in series [6], 0.11 µmol/min/mg in series [7] and 0.103 µmol/min/mg in series [8]. Also, the kcat in [5] was determined as 0.154 s⁻¹; in series [6], 0.311 s⁻¹; in [7], 0.0757 s⁻¹; in series [8], 0.0733 s⁻¹. Moreover, the kcat/Km was 9670 M⁻¹ s⁻¹ in series [5], 11500 M⁻¹ s⁻¹ in [6], 7500 M⁻¹ s⁻¹ in series [7] and 6830 M⁻¹ s⁻¹ in series [8].

B3: OsCAD7 (Oryza sativa Japonica Group) (protein)
chain: MAPTTTATAAAEQAPPPQHTRKAVGLAAHDDSGHLTPIRISRRKTGDDDVAIKVLYCGICHSDLHTIKNEWRNAVYPVVAGHEITGVVTEVGKNVARFKAGDEVGVGCMVNTCGGCESCRDGCENYCSGGVVFTYNSVDRDGTRTYGGYSDAVVVSQRFVVRFPSSAGGGAGAALPLDSGAPLLCAGVTVYAPMRQHGLCEAGKHVGVVGLGGLGHVAVKFARAFGMRVTVISTSPVKRQEALERLGADGFIVSTNASEMKAAMGTMHGIINTASASTSMHSYLALLKPKGKMILVGLPEKPLQIPTFALVGGGKILAGSCMGSISETQEMIDFAAEHGVAADIELIGADEVNTAMERLAKGDVRYRFVVDIGNTLRSD
On to B3, for which the Km is 11.44 ± 2.16 µM in series [9], 14.11 ± 4.00 µM in [10], 2.66 ± 0.49 µM in [11] and 6.42 ± 1.77 µM in series [12]. Also, the Vmax in [9] turned out to be 0.38 µmol/min/mg; in [10], 0.25 µmol/min/mg; in [11] it was 0.09 µmol/min/mg; in [12] it was 0.17 µmol/min/mg. Further, the kcat in series [9] is 0.285 s⁻¹; in series [10], 0.188 s⁻¹; in series [11], 0.0692 s⁻¹; in series [12], 0.128 s⁻¹. Moreover, the kcat/Km in series [9] came out at 25300 M⁻¹ s⁻¹; in series [10], 13700 M⁻¹ s⁻¹; in series [11], 26300 M⁻¹ s⁻¹; in series [12], 21200 M⁻¹ s⁻¹.

(Values after paper PMC6222663, “Biochemical Characterization of the Rice Cinnamyl Alcohol Dehydrogenase Gene Family” (Molecules : A Journal of Synthetic Chemistry and Natural …, 2018).)
